Data from the DeepSol protein solubility set.

Assay: soluble on expression in E. coli; label from the status in PepcDB or PDB records

Row | Sequence | soluble on expression in E. coli
1 | MADIYPLGKTHTEELNEIIVESAKEIAEPDTTMIQKLIDEHNPEPLLKGVRYYMCENDIEKKRRTYYDAAGQQLVDDTKTNNRTSHAWHKLFVDQKTQYLVGEPVTFTSDNKTLLEYVNELADDDFDDILNETVKNMSNKGIEYWHPFVDEEGEFDYVIFPAEEMIVVYKDNTRRDILFALRYYSYKGIMGEETQKAELYTDTHVYYYEKIDGVYQMDYSYGENNPRPHMTKGGQAIGWGRVPIIPFKNNEEMVSDLKFYKDLIDNYDSITSSTMDSFSDFQQIVYVLKNYDGENPKEFTANLRYHSVIKVSGDGGVDTLRAEIPVDSAAKELERIQDELYKSAQAVDNSPETIGGGATGPALEKLYALLDLKANMAERKIRAGLRLFFWFFAEYLRNTGKGDFNPDKELTMTFTRTRIQNDSEIVQSLVQGVTGGIMSKETAVARNPFVQDPEEELARIEEEMNQYAEMQGNLLDDEGGDDDLEEDDPNAGAAESGGAGQVS | soluble
2 | GLVAPGYKMATVAVDHLLGNTESKFEGADMSAKLKLLGVKVGSIGDANGRTEGCKSYVYQNEEQEVYKRLIVSEDNKKLLGAVLVGDTSDYGDLLQLMLNEIDLPEHPDALILPAHAGAEKPALGADALPESAVICSCFDVTKGKIAQAVADGHHTLGDIK | not soluble
3 | MNKMLYGWLLAACCGLPPAFAGDSVDVLAQPALHGPQALRAVLQDVARADARLVAVGERGVVLLSDDNGATWRQATAVPVGVSLTAVQFIDARNGWAVGHAGVVLHSQDGGEHWSVQLDGKRAAALEVQAAEAAADERRLAAAQRLLADGADKPLLALNFTDARNGLVVGAYGVAMRTDDGGRSWQSEIGRLPNGRGLHLYALARQGNQVYIAGEQGLLLRSRDGGEHYEALHGPYDGSYFAATVLPDGRLLLGGLRGSLFASDDGGDSFQALANPTPASINGLRVAGGQLLLANQAGMLLRSGLGAFAAQPVAVSDGLPLTAATTAADGSIVAVGMAGARRLEPSSLEHHHHHH | not soluble
4 | MARESVKILQGKLDVESLISQLNAALSEEWLAYYQYWVGALVVEGAMRADVQGEFEEHAEEERRHAQLLADRIIELEGVPVLDPKKWFELARCKYDAPQGFDSVSLLKDNVASERCAILRYQEIADFTNGKDFTTCDIAKHILAEEEEHEQDLQDYLTDIARMKKSFLDK | not soluble
5 | MAHHHHHHMKETLVFATARQQFLQHGYAIFSAAIGASLIERLRPALTASTVARARCFIDVPDIESMLKSKSRLSDPLYTKVMARLQRRKYMLRRYREEKKRRKQLKEVVANFLNGREKEDLTGEELWKLSELLAKEAVSVPGKECRSTIKNDPQMLRAINEYRCNVWMTNKELENIVRDPSFWQPIGAIASDVGGVERPVLFADAPMFREPYGGPFGYHCTAPSIGVKTNGNQPLAVSLLVFTHRPDKQKMPLFVLKGSHRFVQDQYLRYVLPNVLSLPFLPMESHIPEQIKRFNFDSSVVGSPIEGGDAIGPGTVVVLNPHLMIGVGANASTERVAVYKLNLIAENAPPFLKAPSWITAWRSLPREVNFASPVVFPPFYDKTMSTTSAR | not soluble
6 | MKIIGSMGKKTENLKIDAKKSFLKRIAKNVKVSEGERAVEDILRCIYRNQPISTKKIGQYVKLPLPIVSKVRSILERESLLKRDDKGAVLSKKGIDFVENELGLKLKSDMKCPVCSGRNIVFDEKFEKILKKHKTYAKLRPQVNTMIDQSFATPETATARAAIMADRGDLEGKRVLFVGDDDLASIPTAMTGLCSEVVVLDIDDRLLKLISEVSKKENLNIRTVKWDFKNELPSEFVNKFDTIFTDPPYTLNGAVLFMSRGIEALGDNGILYLAFSHKPVEEYIELQKSINNMNFLIYELIPGFNFYEGTEIIGNTTFLARLVGKNLKKIEVNSEKIYTGELKPTLRYYQCMNCKKIHEVGNKVKRIEDLTCECGGKKFSMIKRAKVKQK | not soluble
7 | IKPTYQGHVTVIIGRNDSKSSTNEQYNDVMMSQNLTKTYAQIAESRSVASKTVSKLSNGTTIDQVSKVVSVTPETGTQIIDITANAKSPEEAADLANDFSDSFVAVSKEVYTAGDARIIDRATAPKSPIKPKK | not soluble
8 | MRDRTCVVPGCGATRGLHAHHIRHWQDGGATELANLVLVCPYHHRAHHRGLITITLEHHHHHH | not soluble
9 | MGREFIPLFEDWAATYDQTVQGLDIQYKEAFRGYDHILDAIVRKSGTHVLEFGPGTGNLTAKLLDAGKTVFGIEPSPAMRKLASDKLSGRTEIVDGDFLTFPEPPFQADTIVSSYAFHHLTDEEKRAAIKQYGKYLHLHDKIVFADTVFENAQAYQQAIDKARSQGFYQLANDLETEHYPTLDALKEMFTAEGFAVRFTQQNDFVWIMEAIKRLEHHHHHH | not soluble
10 | MTSSPARNGDISFWYADIGGVPQPRPPLAGDARADVCIVGAGYTGLWTALYLKEQAPELEVLVLEKEFAGFGASGRNGGWLTGSFAWTHDRYLSTGTAEGVRAMVTAMSGTVDEVIRVAEAEGIDADIHRTDELMVAVTPAQRARAEAEVRHRQSWGEERVSFLEADAVARRIRIPKAEGAMVVGGVARVQPAKLVRGLAEAAERRGVRIAEGTEVLGIAPGRVETRRGTVQAPIILRATEGFTATLPGAKRDWLPLNSAQIVTEPLPPEIWDRIGWEGAEILGDMANAYCYCQRTREGRIAVGARGRAYRMASRIDERGEADAVTVAHLLKRLQRHFPAAADARIDHSWCGVLGVPRDWCATVGLDPTTGIGWAGGYVGVGVSTSNLAGRTLADLALKRDTALTRLPWVNRRVRRWEPEPLRWLGVRGMYRLLEAADRREEAGGPPSWLAALGHRIAGRLEHHHHHH | not soluble
11 | MAHHHHHHMGRKKRKLNIDLKPFCYYCDREFDDEKILIQHQKAKHFKCLHCNRKLDMANGLVVHMMQVHKTNLKSVPNALPKRNDPELVIRGMNGVPTDIIEENLIKLKQKLGDKNIKRQQRVNWAQVTMAPTMEQFLKQAQMGNFSFPGFNSPVLPTNNNILTNTLDINNKSTLPNIPLYIPNTTSNINNINNINNLLQQPIGNNIIYPPKNSTLLNMPIPPINKNNINNHVVTNPNTFTPSNIPPNIAHKYSANINLLPTNINQHNPMYMPPGLYPPPIPPLNHPSIPPTHIPSSTYPTKMTPIQQKRPSTKWDVPEPSEGDPSILKHNKEDSTENKNEEPHKVSQDDDLKQNEQKDNQEKNHTQNCE | not soluble
12 | MCILFIAIEQHPKYPLIICANRDEFHQRPTQAMHVWQESNILAGKDLQAGGTWLGLSSTGKFAALTNFRKLPLSEAPKKSRGDLVLQALADTKINMTAELAQQASQYHGFNLIYGSLKQLYCYDSVNNQSHQLSDGVHSICNGALDDIWPKMARGEKLLSETIRSQKNLSIEALFDLMTNDKQALPHLLPETGLDEEWEQLLSAIFIKSPTYGTRTTTIITQDVEGNVETYDRSYAPSGECITKQQFNLATVFDLEHHHHHH | not soluble
13 | MGSDKIHHHHHHAPTSIPDSALRTAAQLREQALADSTGFAVVESLTTEVGPRIAGGEADPRAVAWAKAKFKSLGFDKVWTEPVTFPKWERRSEQAAVIGAHAQPLHITALGGSPGGTVEGEIVRFENLAALQAAPAGSLAGKIAFVDYQMVKARDGKDYGNGGAVRSKGPSEAIRKGAIGFVMRSAGTDSHRVPHTGITRFDEGLTPVPAAALSVPDANQLARLAALGSTRVRLALDCGWDGTATSYNVIGEITGRSKPKEVVVIGGHLDSWDLGTGAIDDGAGVAITMAAGHLIGQLKQAPKRTIRVVAFANEEQGLYGGKAYAAAHGKDAKDMALHQIGAESDFGAGRIYAFNTGSAAPEQSRAAT | not soluble
14 | MSSVAVLTQESFAEHRSGLVPQQIKVATLNSEEESDPPTYKDAFPPLPEKAACLESAQEPAGAWSNKIRPIKASVITQVFHVPLEERKYKDMNQFGEGEQAKICLEIMQRTGAHLELSLAKDQGLSIMVSGKLDAVMKARKDIVARLQTQASATVPIPKEHHRFVIGKNGEKLQDLELKTATKIQIPRPDDPSNQIKITGTKEGIEKARHEVLLISAEQDKRAVERLEVEKAFHPFIAGPYNRLVGEIMQETGTRINIPPPSVNRTEIVFTGEKEQLAQAVARIKKIYEEKKKKTTTIAVEVKKSQHKYVIGPKGNSLQEILERTGVSVEIPPSDSISETVILRGEPEKLGQALTEVYAKVASSKIKLCSDNS | not soluble
